This assay has as its target human FcRn (FCGRT heavy chain and B2M light chain) expressed on MDCK-hFcRn cells (human) (UniProt P55899). Briefly: cell-based or functional assay.

Our source for the recycling output values is patent US20240085404A1.

Sequence of UniProt P55899 (P55899 24-365, chain 1 of 2): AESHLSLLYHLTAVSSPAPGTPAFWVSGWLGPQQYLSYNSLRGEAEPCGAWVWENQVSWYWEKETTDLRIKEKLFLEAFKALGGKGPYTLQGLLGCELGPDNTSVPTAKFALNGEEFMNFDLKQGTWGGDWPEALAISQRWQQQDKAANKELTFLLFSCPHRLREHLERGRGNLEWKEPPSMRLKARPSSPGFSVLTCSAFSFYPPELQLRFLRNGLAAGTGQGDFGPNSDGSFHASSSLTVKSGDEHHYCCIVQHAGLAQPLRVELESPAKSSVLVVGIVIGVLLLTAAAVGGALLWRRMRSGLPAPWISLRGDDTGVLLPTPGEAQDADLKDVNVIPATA
Sequence of UniProt P55899 (P61769 21-119, chain 2 of 2, further chain): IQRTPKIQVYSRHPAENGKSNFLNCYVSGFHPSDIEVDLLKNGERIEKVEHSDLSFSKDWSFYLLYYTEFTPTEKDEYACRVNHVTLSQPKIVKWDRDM

For the substance anti-gD HAHQ (antibody), the recycling output was found to be 0.6 ng/mL. anti-gD YTE (antibody) registered a recycling output of 1.9 ng/mL.
